Measurements published in article PMC9332313, “Folding and Binding Mechanisms of the SH2 Domain from Crkl” (Biomolecules, 2022).
Square brackets hold non-standard residues; d marks the D form. Ends that are not written are not given here. * marks the point of attachment. pY = N[C@@H](Cc1ccc(OP(=O)(O)O)cc1)C(=O)O; Dansyl = CN(C)c1cccc2c(S(=O)(=O)*)cccc12

Experiments:
Conditions in all cases: both partners purified
[1] = biological target: T1, SH2 domain of Crkl protein (residues 1-111), H80A variant (UniProt P46109 1-111, H80A); assay: stopped-flow fluorescence kinetics (FRET); dansyl-Pax112-123 constant at 2 μM mixed with Crkl-SH2 2 to 10 μM (pseudo-first-order, kon); koff by displacement of the preincubated 2 µM complex with excess non-dansylated Pax112-123 (30 μM); 283 K; 50 mM sodium-acetate pH 5.0, 0.5 M NaCl
T1 construct: Crkl adaptor protein, SH2 domain, residues 1-111, His80 replaced by alanine; Site-directed mutant of m1 (QuikChange); source: E. coli BL21 (DE3), purified (HisTrap nickel column, desalting); not shown: His tag, N-terminal, kept

[2] = biological target: T2, SH2 domain of Crkl protein (residues 1-111), H33A variant (UniProt P46109 1-111, H33A); assay: as above
T2 construct: Crkl adaptor protein, SH2 domain, residues 1-111, His33 replaced by alanine; Site-directed mutant of m1 (QuikChange); source: E. coli BL21 (DE3), purified (HisTrap nickel column, desalting); not shown: His tag, N-terminal, kept

[3] = biological target: T3, SH2 domain of Crkl protein (residues 1-111), wild type (UniProt P46109 1-111); assay: as above
T3 construct: Crkl adaptor protein, SH2 domain, residues 1-111; Subcloned in pET28b+; all experiments were done on the N-terminally His-tagged protein; also called Crkl-SH2; Crkl SH2 domain; source: E. coli BL21 (DE3), purified (HisTrap nickel column, desalting); not shown: His tag, N-terminal, kept

[4] = biological target: T1, SH2 domain of Crkl protein (residues …); assay: stopped-flow fluorescence kinetics (FRET); dansyl-Pax112-123 constant at 2 μM mixed with Crkl-SH2 2 to 10 μM (pseudo-first-order, kon); koff by displacement of the preincubated 2 µM complex with excess non-dansylated Pax112-123 (30 μM); 283 K; 50 mM TrisHCl pH 8.0, 0.5 M NaCl
[5] = biological target: T2, SH2 domain of Crkl protein (residues …); assay: as above
[6] = biological target: T3, SH2 domain of Crkl protein (residues …); assay: as above
[7] = biological target: T1, SH2 domain of Crkl protein (residues …); assay: stopped-flow fluorescence kinetics (FRET); dansyl-Pax112-123 constant at 2 μM mixed with Crkl-SH2 2 to 10 μM (pseudo-first-order, kon); koff by displacement of the preincubated 2 µM complex with excess non-dansylated Pax112-123 (30 μM); 283 K; 50 mM BisTRIS pH 6.8, 0.5 M NaCl
[8] = biological target: T2, SH2 domain of Crkl protein (residues …); assay: as above
[9] = biological target: T3, SH2 domain of Crkl protein (residues …); assay: as above
[10] = biological target: T4, SH2 domain of Crkl protein (residues 1-111), H91A variant (UniProt P46109 1-111, H91A); assay: as above
T4 construct: Crkl adaptor protein, SH2 domain, residues 1-111, His91 replaced by alanine; Site-directed mutant of m1 (QuikChange); source: E. coli BL21 (DE3), purified (HisTrap nickel column, desalting); not shown: His tag, N-terminal, kept
T4 sequence (P46109 1-111 H91A): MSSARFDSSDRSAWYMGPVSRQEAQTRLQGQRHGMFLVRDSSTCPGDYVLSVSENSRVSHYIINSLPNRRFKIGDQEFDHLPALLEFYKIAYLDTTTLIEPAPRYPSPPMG

T1 sequence (P46109 1-111 H80A): as the sequence (P46109 1-111 H91A) above, with H80A, A91H counted along it
T3 sequence (P46109 1-111): as the sequence (P46109 1-111 H91A) above, with A91H counted along it
T2 sequence (P46109 1-111 H33A): as the sequence (P46109 1-111 H91A) above, with H33A, A91H counted along it

B1: dansylated Pax_(112–123) peptide (Dans-GEEEHV-pY-SFPNK) (peptide)
peptide: Dansyl-GEEEHV[pY]SFPNK
notes: The dansyl group is the FRET acceptor of Trp14 of the SH2 domain; source: synthetic peptide, bought: GenScript
Work on B1 yielded a Kd [1] of 11.5 ± 1.2 µM, a koff [1] of 52.7 ± 3.2 s⁻¹ and a kon [1] of 4.6e+06 ± 400000 M⁻¹ s⁻¹. It also gave a Kd [2] of 7.6 ± 0.7 µM, a koff [2] of 33.2 ± 1.4 s⁻¹ and a kon [2] of 4.4e+06 ± 300000 M⁻¹ s⁻¹. For the same binder, the Kd [3] was 9.5 ± 1.7 µM, the koff [3] was 49.1 ± 1.7 s⁻¹ and the kon [3] was 5.2e+06 ± 900000 M⁻¹ s⁻¹. For the same binder, the Kd [4] was 2.3 ± 0.3 µM, the koff [4] was 30.1 ± 3.3 s⁻¹ and the kon [4] was 1.32e+07 ± 700000 M⁻¹ s⁻¹. It also gave a Kd [5] of 2 ± 0.3 µM, a koff [5] of 29.3 ± 3.4 s⁻¹ and a kon [5] of 1.46e+07 ± 1.1e+06 M⁻¹ s⁻¹. The Kd [6] was 3.1 ± 0.2 µM, the koff [6] was 41.4 ± 0.9 s⁻¹ and the kon [6] was 1.32e+07 ± 700000 M⁻¹ s⁻¹. The Kd [7] was 3.1 ± 0.2 µM, the koff [7] was 21.6 ± 0.4 s⁻¹ and the kon [7] was 7.1e+06 ± 400000 M⁻¹ s⁻¹. The Kd [8] was 3.4 ± 0.2 µM, the koff [8] was 22.4 ± 0.5 s⁻¹ and the kon [8] was 6.6e+06 ± 400000 M⁻¹ s⁻¹. The Kd [9] was 2.4 ± 0.1 µM, the koff [9] was 21.4 ± 0.2 s⁻¹ and the kon [9] was 8.9e+06 ± 400000 M⁻¹ s⁻¹. It also gave a Kd [10] of 3 ± 0.1 µM, a koff [10] of 23.4 ± 0.4 s⁻¹ and a kon [10] of 7.8e+06 ± 300000 M⁻¹ s⁻¹.
